Measured values: US20220016243A1 (published 2022)

Molecular target: T1, TIGIT (T-cell immunoreceptor with Ig and ITIM domains), peripheral TIGIT receptors on patients' CD4+ T cells, … (human (patients), UniProt Q495A1 22-244)
T1 construct: whole, on cells; Endogenous receptor on patients' peripheral immune cells; Occupancy was measured ex vivo after dosing with tiragolumab
T1 sequence (looked up): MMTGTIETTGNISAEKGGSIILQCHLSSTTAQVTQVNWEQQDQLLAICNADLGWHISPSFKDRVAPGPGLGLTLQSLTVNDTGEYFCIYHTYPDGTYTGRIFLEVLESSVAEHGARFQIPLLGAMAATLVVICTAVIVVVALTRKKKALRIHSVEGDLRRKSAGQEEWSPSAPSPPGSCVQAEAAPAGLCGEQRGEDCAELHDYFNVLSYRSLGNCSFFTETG
Assay: receptor occupancy on peripheral CD8+ T cells and NK cells of patients dosed at 2-1200 mg Q3W (Phase Ia, Study GO30103)

binding result: binds
B1: tiragolumab (antibody, human IgG1, kappa, V domains shown)
VH: EVQLQQSGPGLVKPSQTLSLTCAISGDSVSSNSAAWNWIRQSPSRGLEWLGKTYYRFKWYSDYAVSVKGRITINPDTSKNQFSLQLNSVTPEDTAVFYCTRESTTYDLLAGPFDYWGQGTLVTVSS
VL: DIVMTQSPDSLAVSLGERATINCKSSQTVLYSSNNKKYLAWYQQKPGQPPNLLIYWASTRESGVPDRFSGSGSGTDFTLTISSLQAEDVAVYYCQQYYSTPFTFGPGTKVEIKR
notes: also called MTIG7192A; RG6058
